Test results published in patent publication US20200062863A1 (CSL BEHRING, published 2020).
Numbering of substitutions follows the chain as printed.

Tests used:
[1] = molecular target: T1, Mu-FXII I438A mutant with C-terminal 8xHis-tag (mouse, UniProt Q80YC5 20-597); assay: Western blot, non-reducing, 3F7 mAb detected with anti-human IgG-FITC
T1 construct: Culture supernatant; also called mutant f) I438A
T1 sequence: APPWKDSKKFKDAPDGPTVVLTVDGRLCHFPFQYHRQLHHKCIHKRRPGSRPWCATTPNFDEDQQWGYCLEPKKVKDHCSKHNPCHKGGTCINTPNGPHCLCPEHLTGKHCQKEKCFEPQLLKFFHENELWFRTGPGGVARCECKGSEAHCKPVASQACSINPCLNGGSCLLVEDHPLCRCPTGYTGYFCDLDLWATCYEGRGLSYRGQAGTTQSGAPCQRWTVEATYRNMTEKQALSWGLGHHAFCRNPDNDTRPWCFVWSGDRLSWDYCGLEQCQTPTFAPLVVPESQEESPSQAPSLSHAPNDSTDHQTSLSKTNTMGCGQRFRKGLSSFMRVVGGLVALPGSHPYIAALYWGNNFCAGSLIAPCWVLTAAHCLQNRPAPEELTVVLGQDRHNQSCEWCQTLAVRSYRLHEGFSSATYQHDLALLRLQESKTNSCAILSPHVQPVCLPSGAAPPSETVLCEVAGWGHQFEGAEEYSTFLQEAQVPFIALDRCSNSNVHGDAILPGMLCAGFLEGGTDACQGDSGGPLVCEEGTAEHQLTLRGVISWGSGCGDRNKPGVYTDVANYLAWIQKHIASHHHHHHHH
Experimental: (§1) Proteins were then transferred electrophoretically onto nitrocellulose filters and blocked for 1 hour in 5% Milk powder in Tris-buffered saline with 0.05% Tween-20 (TTBS). Filters were then incubated for 1 hour with either 3F7 mAb or an anti-His mAb 3H3 (both at […] in TTBS with 5% Milk powder), washed thoroughly with TTBS, then incubated for a further hour with anti-human IgG-FITC or anti-mouse IgG-FITC, respectively (Millipore, USA; both at 0.25 mg/ml in TTBS with 5% Milk powder). Following further washing of membranes in TTBS, Ab-FITC bound proteins were visualized using a Typhoon variable mode analyzer (GE Healthcare, USA).

[2] = molecular target: T2, Mu-FXII N398K mutant with C-terminal 8xHis-tag (mouse, UniProt Q80YC5 20-597); assay: as above
T2 construct: Mouse to rat residue change; culture supernatant; also called mutant c) N398K
T2 sequence: T1 sequence with N379K, A419I
Experimental: as §1

[3] = molecular target: T3, Q450R; assay: Western blot of culture supernatant (non-reducing SDS-PAGE) probed with 3F7 mAb, anti-human IgG-FITC
T3 construct: also called Mu-FXII Q450R mutant with C-terminal 8xHis-tag; mutant g)
T3 single chain: T1 sequence with A419I, Q431R
Experimental: as §1

[4] = molecular target: T4, W420R; assay: as above
T4 construct: also called Mu-FXII W420R mutant with C-terminal 8xHis-tag; mutant d)
T4 single chain: T1 sequence with W401R, A419I
Experimental: as §1

binding result [1]: no binding
binding result [2]: no binding
binding result [3]: binds
binding result [4]: binds
B1: monoclonal antibody 3F7 (fully human IgG4/lambda) (antibody, V domains shown)
VH: EVQLLESGGGLVQPGGSLRLSCAASGFTFSKYIMQWVRQAPGKGLEWVSGIRPSGGTTVYADSVKGRFTISRDNSKNTLYLQMNSLRAEDTAVYYCARALPRSGYLISPHYYYYALDVWGQGTTVTVSS
VL: QSELTQPPSASGTPGQRVTISCSGSSSNIGRNYVYWYQQVPGTAPKLLIYSNNQRPSGVPDRFSGSKSGTSASLVISGLRSEDEADYYCAAWDASLRGVFGGGTKLTVLG
notes: also called 3F7 mAb; MAb 3F7
